Read-outs that look alike come from different tables or passages of the source. Each block holds one binder with its values, some of them ahead of it. No end group written: not given here.
What was measured:
[1] = biological target: human insulin receptor (HIR) (human) (UniProt P06213); assay: HIR Kd; method not restated (Example 3: 125I-insulin displacement, solubilised HIR)
[2] = biological target: human insulin receptor (HIR) (human) (UniProt P06213); assay: as above; remark: listed apart in the source
[3] = biological target: Soluble IGF-1R (R&D Systems, Cat. # 391-GR/CF), P08069; assay: phage ELISA: IGF-1R ratio over background divided by IR ratio over background
[4] = biological target: T1, Insulin receptor prepared according to Bass et al., 1996 (human), P06213; assay: phage ELISA: IR ratio over background divided by IGF-1R ratio over background
[5] = biological target: T1, Insulin receptor prepared according to …
[6] = biological target: Soluble IGF-1R (R&D Systems, Cat. # 391-GR/CF), P08069
[7] = biological target: soluble human insulin receptor-immunoglobulin heavy chain chimera (sIR-Fc; Bass et al., 1996) (human) (UniProt P06213); assay: phage ELISA
[8] = biological target: Soluble IGF-1R (sIGF-1R), R&D Systems Cat. # 391-GR/CF, P08069; assay: phage ELISA
[9] = biological target: soluble human insulin receptor-immunoglobulin heavy chain chimera (sIR-Fc; Bass et al., 1996) (human), P06213; assay: phage ELISA
[10] = biological target: human insulin receptor (HIR) purified from transfected cells after solubilization with Triton X-100 (human) (UniProt P06213); assay: competition with 125I-insulin for solubilised HIR, PEG precipitation; Kd calculated

Binder: DYKDVDTPAQVGWNRLWSVGPGEHWYTDDPFYHXLSELLRESGAAAAGAP (peptide, not shown: large carriers, X: residue not identified in the source; also: phage-displayed fusion) [B6L-3-G6-IR]
Comparison IGF-1R/IR [3]: 1.4
Comparison IR/IGF-1R [4]: 0.7
Ratio over Background, IR (ratio over background) [5]: 1.8
Ratio over Background, IGF-1R (ratio over background) [6]: 2.5

B3: B6L-4-A7-IR (peptide, not shown: large carriers)
peptide: DYKDAGTPAQVGXNRLWSVWPGEHWNTVDPFYNKLSELLRESGAAAAGAP
modifications: not fully specified; X: residue not identified in the source; also: phage-displayed fusion
Comparison IGF-1R/IR [3]: 1.8
Comparison IR/IGF-1R [4]: 0.6
Ratio over Background, IR (ratio over background) [5]: 1.9
Ratio over Background, IGF-1R (ratio over background) [6]: 3.4

Binder: YRGMLVLGRISGGAGKAASERPARIGQKVSAVNFYDWFV [A6L-0-H3-IR]
IR/IGF-1R comparison [7]: 0.1
Ratio over Background [7]: 2

B8: 20E2B-2-B11-IGFR (peptide)
peptide: VVTPVNFYRALEALVRGXRLG
modifications: not fully specified; printed as VVTPVNFYRALEALVRG.RLG; X: residue not identified in the source
IGF-1R/IR comparison [8]: 9.4
Ratio over Background [8]: 10.6
IR/IGF-1R comparison [9]: 0.1
Ratio over Background [9]: 1.1

Binder: RGAVAGFHDQFYDWFDRQVSRVHKFG [H2CA-4-H9-IGFR]
IR/IGF-1R comparison [7]: 0.3
Ratio over Background [7]: 1.9

B10: 20E2B-3-C11-IGFR (peptide)
peptide: CMMXDGFYAGLGCLLTAGEGR
modifications: not fully specified; printed as CMM.DGFYAGLGCLLTAGEGR; X: residue not identified in the source; cysteine pairing not given here
IGF-1R/IR comparison [8]: 7.5
Ratio over Background [8]: 15.4
IR/IGF-1R comparison [9]: 0.1
Ratio over Background [9]: 2.1

B11: B6Hα-2-C4-IR (peptide)
peptide: RCGRWXAEMGAGDDPFYHKLSELVCG
modifications: not fully specified; X: residue not identified in the source; cysteine pairing not given here
IGF-1R/IR comparison [8]: 11
Ratio over Background [8]: 9.9
IR/IGF-1R comparison [9]: 0.1
Ratio over Background [9]: 0.9

Other lines, results leading:

Kd [1]: 8300 nM
Kd [2]: 83 nM
B1: Fusion 437 (MBP fusion of H2C) (protein, not shown: large carriers; small tags and cut ends)
chain: NNNNLGIEGRISEFIEGRAQPAMAFHENFYDWFVRQVSAAAGAPVPYPDPLEPRAA

Kd [2]: 960 nM
B2: Fusion 463 (MBP fusion of H2C-3aa-H2C) (protein, not shown: large carriers; small tags and cut ends)
chain: NNNNLGIEGRISEFIEGRAQPAMAFHENFYDWFVRQVSGGSFHENFYDWFVRQVSAAAGAPVPYPDPLEPRAA

Kd [2]: 60 nM
B4: RB517 (peptide)
peptide: DYKDDDDKHLCVLEELFWGASLFGYCSGGGSGGSHLCVLEELFWGASLFGYCSGAAAGAPVPYPDPLEPRAA

Kd [2]: 44 nM
B5: RB521 (peptide)
peptide: MADYKDDDDKGSLDESFYDWFERQLGKKGGSGGSGSLDESFYDWFERQLGKKAAAGAPVPYPDPLEPRPG

Kd [1]: 2000 nM
Kd [2]: 20 nM
B6: Fusion 435 (MBP fusion of H2C-3aa-H2C-3aa-H2C) (protein, not shown: large carriers; small tags and cut ends)
chain: NNNNLGIEGRISEFIEGRAQPAMAFHENFYDWFVRQVSGGSFHENFYDWFVRQVSGGSFHENFYDWFVRQVSAAAGAPVPYPDPLEPRAA

Kd [2]: 0.059 nM
B7: RB537 (peptide)
peptide: MADYKDDDDKGSLDESFYDWFERQLGKKGGSGGSWLDQEWAWVQCEVYGRGCPSAAAGAPVPYPDPLEPRPG

Kd [10]: 320 nM
Binder: GSLDESFYDWFERQLG [S386]

Kd [2]: 0.017 nM
B9: RB538 (peptide)
peptide: MADYKDDDDKGSLDESFYDWFERQLGKKGGSGGSGGSGGSWLDQEWAWVQCEVYGRGCPSAAAGAPVPYPDPLEPRPG

Kd [2]: 410 nM
B12: Fusion 436 (MBP fusion of H2C-9aa-H2C) (protein, not shown: large carriers; small tags and cut ends)
chain: NNNNLGIEGRISEFIEGRAQPAMAFHENFYDWFVRQVSGGSGGSGGSFHENFYDWFVRQVSAAAGAPVPYPDPLEPRAA

Kd [1]: 39 nM
B13: Fusion 464 (MBP fusion of LF-H2C) (protein, not shown: large carriers; small tags and cut ends)
chain: NNNNLGIEGRISEFIEGRDYKDDDDKFHENFYDWFVRQVSAAGAPVPYPDPLEPRAA

Reference: patent publication US20070265189A1
